The values below come from PMC8887654 (ACS infectious diseases, 2022).

Values joined by “and” are separate entries in the source; they are usually repeats but may differ in a detail not shown here. Identical values can stand only once.

One data set has as its system subgroup 2b PLpros. Kind of data set: PLpro inhibition IC50, text summary over all three PLpros. The format is biochemical. The settings on record: read-out: IC50 values; text summary for the most potent inhibitors.
A further data set deals with BEAS-2B cells. The settings on record: human.
The subject of a further data set is RPTEC. Particulars: human.
For another data set, the system named is SARS PLpro. The settings on record: cited from earlier work.
The test system of another data set is SARS-2 PLpro. The settings on record: cited from earlier work.
The next data set relates to MERS PLpro. The settings on record: cited from earlier work.
The next data set relates to BtSCoV-Rf1.2004 PLpro. The format is biochemical.
A further data set deals with MHV PLP2. The settings on record: cited from earlier work.

Take `Cc1ccc(N)cc1C(=O)N[C@H](C)c1cccc2ccccc12` [GRL0617, 5-Amino-2-methyl-N-[(R)-1-(1-naphthyl)ethyl]benzamide]: the half-inhibitory concentration (IC50) (in general, the concentration needed to halve the response being measured) in the data set with subgroup 2b PLpros was below 10 µM. Further, the “CC50 relative to IC50” value with BEAS-2B cells and with RPTEC was “more than five times the IC50” in each case.
As for “human ISG15-7-amino-4-methylcourmarin [ISG15-AMC]”, the Kcat is 7.27 s⁻¹ and 7.27 ± 0.667 s⁻¹ in the data set with SARS PLpro; 0.667 ± 0.03 s⁻¹ in the data set with SARS-2 PLpro; 0.543 ± 0.03 s⁻¹ with MERS PLpro. For the same compound, the Km (as a rule, the concentration of substrate that gives half-maximal velocity) is 15.1 ± 2.4 µM in the data set with SARS PLpro, 3.9 ± 0.5 µM in the data set on SARS-2 PLpro and 3.3 ± 0.5 µM in the data set on MERS PLpro. Also, the “observed rate (no maximum turnover calculable)” value with BtSCoV-Rf1.2004 PLpro was 595 min⁻¹.
In the case of “Ubiquitin–7-amino-4-methylcourmarin [Ub-AMC]”, the Kcat in the data set with SARS PLpro was 1.26 ± 0.135 s⁻¹; in the data set on SARS-2 PLpro, 0.167 ± 0.013 s⁻¹; in the data set with MERS PLpro, 0.313 ± 0.02 s⁻¹; in the data set on MHV PLP2, 0.83 ± 0.0483 s⁻¹; in the data set on BtSCoV-Rf1.2004 PLpro, 0.232 ± 0.0067 s⁻¹. In addition, the Km in the data set on SARS PLpro was 50.6 ± 7.4 µM; with SARS-2 PLpro it was 7.9 ± 1.4 µM; with MERS PLpro, 14.3 ± 2 µM; in the data set with MHV PLP2, 1.3 ± 0.2 µM; in the data set on BtSCoV-Rf1.2004 PLpro it was 14.3 ± 0.9 µM.
